Measurements reported in patent US12083165B2, “Thymosin alpha 1 for use in treatment of cystic fibrosis” (SciClone Pharmaceuticals International (SG) PTE. LTD., priority 2015, dated 2024).

How the values were obtained:
ΔF508 CFTR [1] = target: T1, ΔF508 CFTR (Homo sapiens, UniProt P13569, DEL508-508); assay: CFTR immunoblot (mature C / immature B band) in CFBE41o− cells stably expressing ΔF508 CFTR; format: cell-based
Experimental: Cells. Cell Lines and Cell Culture—Human bronchial epithelial (HBE) cells, homozygous for the […] mutation and its isogenic wild-type were obtained from lung transplants (CF patients) or lung resections (non-CF patients) (kindly provided by L J Galietta within the Italian Cystic Fibrosis Foundation). Cells were maintained at 37° C. in a humidified incubator in an atmosphere containing 5% CO2, and the experiments were done 5 days after plating (21, 22). Stable lentiviral-based transduction of the parental CFBE41o− cells (ΔF508/ΔF508), originally immortalized and characterized by Dr. D. Gruenert and co-workers (32) with either WT-CFTR or ΔF508-CFTR, was performed by Tranzyme, Inc. (Birmingham, AL). The transduced CFBE41o− cells were maintained in minimum Eagle's medium supplemented with 50 units/ml penicillin, 50 μg/ml streptomycin, 2 mM L-glutamine, 10% fetal bovine serum, and 1 μg/ml blasticidine (WT-CFTR) or 2 μg/ml puromycin (ΔF508-CFTR) in a 5% CO2, 95% air incubator at 37° C. The parental CFBE41o− cells were maintained under the same culture conditions but without blasticidine or puromycin. To establish polarized monolayers, CFBE41o− cells were seeded on 24-mm-diameter Transwell permeable supports ([…] pore size; Corning Corp., Corning, NY) at 2×10^6 and grown in air-liquid interface culture at 37° C. for 6-9 days and then at 27° C. for 36 hours. Cells were incubated with Tα1 100 ng/ml (CRIBI Biotechnology, Padova, see below), 3 μM VX-809 (Lumacaftor, Aurogene Rome, Italy), 1 μM VX-770 (Ivacaftor, Aurogene) alone or in combination for 24 hours before the assessment of CFTR protein expression and function. DMSO vehicle alone (0.1%, v/v) for 24 h was used as a control.
CFTR Immunoblot Analysis. Immunoblot techniques using the anti-CFTR antibody (clone CF3, Abcam) were used to measure CFTR maturation in FRT, HEK-293, or HBE cells expressing CFTR or F508del-CFTR (34). After incubation, cells were harvested in ice-cold D-PBS solution (without calcium and magnesium) and pelleted at 1,000×g at 4° C. Cell pellets were lysed in 1% Nonidet P-40, 0.5% sodium deoxycholate, 200 mM NaCl, 10 mM Tris, pH 7.8, and 1 mM EDTA plus protease inhibitor mixture (1:250; Roche) for 30 min on ice. Lysates were spun for 10 min at 10,000×g at 4° C. to pellet nuclei and insoluble material. […] LiteAblotPlus chemiluminescence substrate (Euroclone S.p.A.), using ChemiDoc™ XRS+ Imagig system (Bio-Rad Laboratories) and blot quantification was obtained by densitometry image analysis using Image Lab 3.1.1 software (Bio-Rad).
The SV40 transformed CF airway epithelial cell line (CFBE41o−), homozygous for the ΔF508-CFTR mutation, was used (32). […] CFTR bands were quantified by densitometry and expressed as the C/B ratio. […]

ΔF508 CFTR [2] = target: T1, ΔF508 CFTR; assay: Chloride permeability by SPQ fluorescence assay upon forskolin stimulation, CFBE41o− cells; format: cell-based
Experimental: Cells. Cell Lines and Cell Culture—Human bronchial epithelial (HBE) cells, homozygous for the […] mutation and its isogenic wild-type were obtained from lung transplants (CF patients) or lung resections (non-CF patients) (kindly provided by L J Galietta within the Italian Cystic Fibrosis Foundation). Cells were maintained at 37° C. in a humidified incubator in an atmosphere containing 5% CO2, and the experiments were done 5 days after plating (21, 22). Stable lentiviral-based transduction of the parental CFBE41o− cells (ΔF508/ΔF508), originally immortalized and characterized by Dr. D. Gruenert and co-workers (32) with either WT-CFTR or ΔF508-CFTR, was performed by Tranzyme, Inc. (Birmingham, AL). […]
The activity of Tα1, either alone or in combination with ivacaftor, has been comparatively assessed with that of lumacaftor on CFBE41o− cells expressing ΔF508 CFTR and on HBE cells from CF patients. To this purpose, cells were treated with Tα1 (100 ng/ml), VX-770 (1 μM) or VX-809 (3 μM) alone or in combination for 24 hours and assessed for CFTR protein expression and function. […] In terms of ion channel activity, Tα1, either alone or in combination with ivacaftor, increased the chloride permeability of ΔF508 CFTR cells between 60 to 70% relative to control (considering WT control as 100% reference value)(B, assessed by a fluorescence assay upon stimulation with fosforkolin, Fsk). […]

T1 sequence (P13569 with tags, fused parts or gaps DEL508-508): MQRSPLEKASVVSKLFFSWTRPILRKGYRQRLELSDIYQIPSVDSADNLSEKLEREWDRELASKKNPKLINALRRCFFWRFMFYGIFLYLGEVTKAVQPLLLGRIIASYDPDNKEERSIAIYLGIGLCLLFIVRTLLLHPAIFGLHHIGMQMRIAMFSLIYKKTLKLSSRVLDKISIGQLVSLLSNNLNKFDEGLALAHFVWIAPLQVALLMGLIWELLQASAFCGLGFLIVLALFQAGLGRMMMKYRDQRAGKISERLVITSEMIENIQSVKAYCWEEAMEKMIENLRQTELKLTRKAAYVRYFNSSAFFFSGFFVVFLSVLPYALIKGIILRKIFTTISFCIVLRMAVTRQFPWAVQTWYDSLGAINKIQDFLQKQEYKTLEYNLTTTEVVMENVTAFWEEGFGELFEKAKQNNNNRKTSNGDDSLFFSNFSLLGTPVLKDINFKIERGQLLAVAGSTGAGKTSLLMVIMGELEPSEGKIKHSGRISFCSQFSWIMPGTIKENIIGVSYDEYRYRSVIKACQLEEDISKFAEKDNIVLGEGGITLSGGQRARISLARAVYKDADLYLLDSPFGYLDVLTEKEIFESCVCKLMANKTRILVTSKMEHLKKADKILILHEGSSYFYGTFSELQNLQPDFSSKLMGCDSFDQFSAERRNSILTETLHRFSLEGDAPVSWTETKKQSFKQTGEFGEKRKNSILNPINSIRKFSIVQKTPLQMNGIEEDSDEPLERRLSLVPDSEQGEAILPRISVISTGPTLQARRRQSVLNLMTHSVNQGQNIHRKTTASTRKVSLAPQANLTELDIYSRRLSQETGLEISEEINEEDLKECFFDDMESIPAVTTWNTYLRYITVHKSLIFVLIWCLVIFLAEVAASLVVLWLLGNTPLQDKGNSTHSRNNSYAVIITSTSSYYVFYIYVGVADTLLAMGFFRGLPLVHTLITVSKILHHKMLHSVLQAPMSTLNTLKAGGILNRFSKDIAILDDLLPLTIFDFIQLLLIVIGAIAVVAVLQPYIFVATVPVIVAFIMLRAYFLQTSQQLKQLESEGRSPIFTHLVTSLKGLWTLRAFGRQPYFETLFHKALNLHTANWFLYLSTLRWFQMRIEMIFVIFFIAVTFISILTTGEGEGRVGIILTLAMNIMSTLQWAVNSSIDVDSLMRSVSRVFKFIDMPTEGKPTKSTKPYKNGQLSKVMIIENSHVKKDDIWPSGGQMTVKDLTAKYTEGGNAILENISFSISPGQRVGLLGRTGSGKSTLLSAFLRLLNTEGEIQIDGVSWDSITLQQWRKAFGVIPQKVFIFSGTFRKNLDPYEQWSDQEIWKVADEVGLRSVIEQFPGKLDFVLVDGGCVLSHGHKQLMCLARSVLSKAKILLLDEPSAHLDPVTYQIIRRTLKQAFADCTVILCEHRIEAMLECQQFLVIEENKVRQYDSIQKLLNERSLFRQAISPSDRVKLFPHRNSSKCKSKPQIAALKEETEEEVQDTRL

## Ac-Ser-Asp-Ala-Ala-Val-Asp-Thr-Ser-Ser-Glu-Ile-Thr-Thr-Lys-Asp-Leu-Lys-Glu-Lys-Lys-Glu-Val-Val-Glu-Glu-Ala-Glu-Asn-O (Ac-SDAAVDTSSEITTKDLKEKKEVVEEAEN-OH; not fully specified; printed as Ac-Ser-Asp-Ala-Ala-Val-Asp-Thr-Ser-Ser-Glu-Ile-Thr-Thr-Lys-Asp-Leu-Lys-Glu-Lys-Lys-Glu-Val-Val-Glu-Glu-Ala-Glu-Asn-O; listed as Homo sapiens) [Tα1, naturally occurring polypeptide of 28 amino acid; supplied as purified sterile, lyophilized, acetylated polypeptide]
ΔF508 CFTR [1]; 100 ng/ml Tα1, from 30 mins until 24 hours, CFBE41o− cells expressing ΔF508 CFTR
  cellular expression of ΔF508 mature CFTR (band C, C/B ratio): persistently increased
ΔF508 CFTR [1]; ΔF508-transfected cells, 24 hours, Tα1 100 ng/ml, VX-770 1 μM, VX-809 3 μM alone or in combination
  expression of the mature form (C) relative to the immature form (B) of CFTR: increased
ΔF508 CFTR [2]; 100 ng/ml Tα1 for 24 hours, CFBE41o− cells, forskolin stimulation
  chloride permeability of ΔF508 CFTR cells relative to control (WT control as 100%): approximately 70%
ΔF508 CFTR [2]; CFBE41o− cells expressing ΔF508 CFTR, 24 hours
  ion channel activity compared to lumacaftor: lower
